# Test results published in article PMC8533099, “Kinetic Analysis of the Interaction of Nicking Endonuclease BspD6I with DNA”.
# T1: Nt.BspD6I (UniProt A3FEV7 1-604)
# T1 sequence: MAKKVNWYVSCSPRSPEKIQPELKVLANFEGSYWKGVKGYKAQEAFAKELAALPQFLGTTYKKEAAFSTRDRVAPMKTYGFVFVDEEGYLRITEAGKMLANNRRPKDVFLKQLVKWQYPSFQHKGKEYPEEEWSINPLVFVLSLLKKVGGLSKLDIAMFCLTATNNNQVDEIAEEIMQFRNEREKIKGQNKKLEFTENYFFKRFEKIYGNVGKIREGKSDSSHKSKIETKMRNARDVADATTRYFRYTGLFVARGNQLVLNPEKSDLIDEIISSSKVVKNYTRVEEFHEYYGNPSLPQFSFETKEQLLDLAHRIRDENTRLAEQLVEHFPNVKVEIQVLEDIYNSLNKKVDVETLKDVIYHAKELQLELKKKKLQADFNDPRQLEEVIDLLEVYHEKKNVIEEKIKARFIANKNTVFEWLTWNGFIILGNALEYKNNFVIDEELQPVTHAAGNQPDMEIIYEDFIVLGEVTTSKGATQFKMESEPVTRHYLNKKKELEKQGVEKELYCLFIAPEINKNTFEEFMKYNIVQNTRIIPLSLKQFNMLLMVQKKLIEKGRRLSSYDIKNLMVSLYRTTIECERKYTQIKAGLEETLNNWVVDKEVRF
# B1: VI-30N (dsDNA)
# DNA 1: GTATGAAGCTAGAGCCAGGTTGGCAGCATC
# DNA 2: GATGCTGCCAACCTGGCTCTAGCTTCATAC
# B2: II-19 (dsDNA)
# DNA 1: GGTCTCGAGTCTTCTCAAG
# DNA 2: CTTGAGAAGACTCGAGACC
# B3: III-21 (dsDNA)
# DNA 1: GGTCTCGAGTCTTCTCAAGGT
# DNA 2: ACCTTGAGAAGACTCGAGACC
# B4: IV-23 (dsDNA)
# DNA 1: GGTCTCGAGTCTTCTCAAGGTAC
# DNA 2: GTACCTTGAGAAGACTCGAGACC
# B5: V-26 (dsDNA)
# DNA 1: CGTGGTCTCGAGTCTTCTCAAGGTAC
# DNA 2: GTACCTTGAGAAGACTCGAGACCACG
# B6: VI-30 (dsDNA)
# DNA 1: GCGTGGTCTCGAGTCTTCTCAAGGTACCTG
# DNA 2: CAGGTACCTTGAGAAGACTCGAGACCACGC
# B7: I-17 (dsDNA)
# DNA 1: GGTCTCGAGTCTTCTCA
# DNA 2: TGAGAAGACTCGAGACC
# Experiments:
# Conditions in all cases: blunt
# [1] = molecular target: T1, Nt.BspD6I; assay: stopped-flow Trp fluorescence; 10 mM Ca2+; Stopped-flow, 37 °C, 10 mM CaCl2 or 10 mM MgCl2 (or 0.4 mM EDTA without divalent metal); 1 µM enzyme (Trp) or 1 µM DNA (FRET); buffer, salt and pH not in the supplied text
# [2] = molecular target: T1, Nt.BspD6I; assay: stopped-flow Trp fluorescence; 10 mM Mg2+; Stopped-flow, 37 °C, 10 mM CaCl2 or 10 mM MgCl2 (or 0.4 mM EDTA without divalent metal); 1 µM enzyme (Trp) or 1 µM DNA (FRET); buffer, salt and pH not in the supplied text
# [3] = molecular target: T1, Nt.BspD6I; assay: stopped-flow Trp fluorescence; 10 mM Ca2+; kobs k1 261 s-1, k2 6.2 s-1; Stopped-flow, 37 °C, 10 mM CaCl2 or 10 mM MgCl2 (or 0.4 mM EDTA without divalent metal); 1 µM enzyme (Trp) or 1 µM DNA (FRET); buffer, salt and pH not in the supplied text
# [4] = molecular target: T1, Nt.BspD6I; assay: stopped-flow Trp fluorescence; 10 mM Mg2+; kobs k1 232 s-1, k2 21 s-1; Stopped-flow, 37 °C, 10 mM CaCl2 or 10 mM MgCl2 (or 0.4 mM EDTA without divalent metal); 1 µM enzyme (Trp) or 1 µM DNA (FRET); buffer, salt and pH not in the supplied text
# [5] = molecular target: T1, Nt.BspD6I; assay: stopped-flow Trp fluorescence; 10 mM Mg2+; kobs k1 145 s-1, k2 10.0 s-1; Stopped-flow, 37 °C, 10 mM CaCl2 or 10 mM MgCl2 (or 0.4 mM EDTA without divalent metal); 1 µM enzyme (Trp) or 1 µM DNA (FRET); buffer, salt and pH not in the supplied text
# [6] = molecular target: T1, Nt.BspD6I; assay: stopped-flow Trp fluorescence; 10 mM Mg2+; kobs k1 126 s-1, k2 7.0 s-1; Stopped-flow, 37 °C, 10 mM CaCl2 or 10 mM MgCl2 (or 0.4 mM EDTA without divalent metal); 1 µM enzyme (Trp) or 1 µM DNA (FRET); buffer, salt and pH not in the supplied text
# [7] = molecular target: T1, Nt.BspD6I; assay: stopped-flow Trp fluorescence; 0.4 mM EDTA, no divalent metal; Stopped-flow, 37 °C, 10 mM CaCl2 or 10 mM MgCl2 (or 0.4 mM EDTA without divalent metal); 1 µM enzyme (Trp) or 1 µM DNA (FRET); buffer, salt and pH not in the supplied text
# [8] = molecular target: T1, Nt.BspD6I; assay: stopped-flow Trp fluorescence; 10 mM Mg2+; kobs k1 490 s-1, k2 128 s-1; Stopped-flow, 37 °C, 10 mM CaCl2 or 10 mM MgCl2 (or 0.4 mM EDTA without divalent metal); 1 µM enzyme (Trp) or 1 µM DNA (FRET); buffer, salt and pH not in the supplied text
binder,measurement,setting,value
B1,Kd,[1],60 ± 20 nM
same,Kd,[2],70 ± 20 nM
B2,binding result,[3],binds
B3,binding result,[4],binds
B4,binding result,[5],binds
B5,binding result,[6],binds
B6,Kd,[7],13 ± 3 nM
B7,binding result,[8],binds
